The labels stand for the following.
B1: hu HIL6 AFH monomer (other)
chain: PEEPQLSCFRKSPLSNVVCEWGPRSTPSLTTKAVLLVRKFQNSPAEDFQEPCQYSQESQKFSCQLAVPEGDSSFYIVSMCVASSVGSKFSKTQTFQGCGILQPDPPANITVTAVARNPRWLSVTWQDPHSWNSSFYRLRFELRYRAERSKTFTTWMVKDLQHHCVIHDAWSGLRHVVQLRAQEEFGQGEWSEWSPEAMGTPWTESRSPPAGGGSDVAAPHRQPLTSSERIDKQIRYILDGISALRKETCNKSNMCESSKEALAENNLNLPKMAEKDGCFQSGFNEETCLVKIITGLLEFEVYLEYLQNRFESSEEQARAVQMSTKVLIQFLQKKAKNLDAITTPDPTTNASLLTKLQAQNQWLQDMTTHLILRSFKEFLQSSLRALRQM
B7: sIL6R Fc dimer (Fc fusion, UniProt P08887 20-358, looked up)
chain: LAPRRCPAQEVARGVLTSLPGDSVTLTCPGVEPEDNATVHWVLRKPAAGSHPSRWAGMGRRLLLRSVQLHDSGNYSCYRAGRPAGTVHLLVDVPPEEPQLSCFRKSPLSNVVCEWGPRSTPSLTTKAVLLVRKFQNSPAEDFQEPCQYSQESQKFSCQLAVPEGDSSFYIVSMCVASSVGSKFSKTQTFQGCGILQPDPPANITVTAVARNPRWLSVTWQDPHSWNSSFYRLRFELRYRAERSKTFTTWMVKDLQHHCVIHDAWSGLRHVVQLRAQEEFGQGEWSEWSPEAMGTPWTESRSPPAENEVSTPMQALTTNKDDDNILFRDSANATSLPVQD
notes: not shown: Fc

Assay [1] addresses T1, human gp130-Fc chimera (R&D Systems) (human, UniProt P40189 23-619).
T1 construct: Bought product; also called Human gp130-human IgG Fc fusion protein; soluble gp130; not shown: human IgG Fc
T1 sequence (looked up): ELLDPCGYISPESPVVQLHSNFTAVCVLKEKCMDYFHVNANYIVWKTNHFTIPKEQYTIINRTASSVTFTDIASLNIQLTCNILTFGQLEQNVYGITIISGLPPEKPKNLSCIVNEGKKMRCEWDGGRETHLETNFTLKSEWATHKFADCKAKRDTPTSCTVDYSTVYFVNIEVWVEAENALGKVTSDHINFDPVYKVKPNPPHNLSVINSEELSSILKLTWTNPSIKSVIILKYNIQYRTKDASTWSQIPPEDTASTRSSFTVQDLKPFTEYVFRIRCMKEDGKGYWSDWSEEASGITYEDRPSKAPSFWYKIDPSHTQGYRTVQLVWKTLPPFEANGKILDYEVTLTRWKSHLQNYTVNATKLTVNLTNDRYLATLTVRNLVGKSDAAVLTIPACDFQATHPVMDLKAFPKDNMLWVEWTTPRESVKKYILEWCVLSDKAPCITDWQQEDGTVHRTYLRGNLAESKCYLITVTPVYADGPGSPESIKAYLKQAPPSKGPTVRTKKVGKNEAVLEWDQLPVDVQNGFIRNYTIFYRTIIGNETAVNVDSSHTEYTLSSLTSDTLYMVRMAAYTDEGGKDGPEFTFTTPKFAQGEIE
The experiment in a line: SPR Biacore T100, binder captured by anti-human Fc. (Surface plasmon resonance follows binding to a sensor surface in real time, without labels.)

Assay [2] deals with T2, hu HIL6 Fc dimer (dimeric human HIL6/mouse IgG Fc fusion protein) (human).
T2 construct: also called human hyper-IL6 (IL6R-IL6-mIgG); dimeric HIL6
T2 chain: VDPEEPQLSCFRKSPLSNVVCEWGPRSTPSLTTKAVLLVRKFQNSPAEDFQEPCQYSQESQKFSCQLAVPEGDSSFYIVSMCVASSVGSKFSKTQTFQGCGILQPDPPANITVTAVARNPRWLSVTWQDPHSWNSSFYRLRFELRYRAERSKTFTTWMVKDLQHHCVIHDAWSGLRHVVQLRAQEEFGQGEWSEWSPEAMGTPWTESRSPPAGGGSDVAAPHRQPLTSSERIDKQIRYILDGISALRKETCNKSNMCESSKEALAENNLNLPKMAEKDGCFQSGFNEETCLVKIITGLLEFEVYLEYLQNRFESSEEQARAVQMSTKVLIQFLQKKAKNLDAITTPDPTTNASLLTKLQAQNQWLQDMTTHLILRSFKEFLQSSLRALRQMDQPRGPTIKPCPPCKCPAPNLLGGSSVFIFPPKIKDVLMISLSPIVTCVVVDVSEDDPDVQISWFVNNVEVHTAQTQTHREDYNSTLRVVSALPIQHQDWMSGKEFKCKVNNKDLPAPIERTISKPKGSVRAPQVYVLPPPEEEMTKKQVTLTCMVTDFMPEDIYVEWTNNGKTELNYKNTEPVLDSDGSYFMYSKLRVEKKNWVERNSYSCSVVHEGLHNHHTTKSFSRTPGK
Description: SPR Biacore T100, HIL6-mouse Fc captured by anti-mouse Fc, scFv injected.

For assay [3], the target named is B1. Description: SPR Biacore T100, binder captured by anti-human Fc. How it is done:
(§1) Binding affinities and kinetic rate constants of interaction of hyper-IL6 (HIL6; monomer or dimer), and its components IL6 and sIL6R, with different anti-HIL6 binding domains in scFv, SMIP, Xceptor and reverse Xceptor formats were determined using a Biacore® T100 instrument (GE Healthcare, Piscataway, N.J.).
(§2) Anti-HIL6 SMIPS, Xceptors, and reverse Xceptors were captured by a monoclonal mouse anti-human Fc, which was covalently conjugated to a carboxylmethyl dextran (CM4) surface via amines using N-ethyl-N′-(3-dimethylaminopropyl)-carbodiimide hydrochloride and N-hydroxysuccinimide. The unoccupied sites of the activated surface were blocked by ethanolamine. […] In every cycle, three different HIL6 binders were captured on flow cells 2, 3 and 4, while flow cell 1 was used as the reference cell. For each cycle, a single concentration of a single HIL6-related molecule was injected for 150 seconds at 35 microliters per minute, and then allowed to dissociate for 300 seconds. At the end of the cycle, the surface was regenerated gently using 3M MgCl₂, which dissociates protein bound to anti-hFc capture antibody. Multiple cycles were performed to study binding of monomeric or dimeric HIL6 at different concentrations, in the range of 0-100 nM, for each set of three HIL6 binders captured. […] The experiment was performed at 25° C. Signal associated with binding to the reference cell was used to subtract for bulk refractive changes and blank (buffer-only) injections were used to correct for drift and system noise. The kinetic parameters and affinities were determined using BIAevaluation software. Anti-HIL6 scFv molecules were analyzed in the reverse orientation using a dimeric human HIL6/mouse IgG Fc fusion protein captured by an immobilized rabbit polyclonal anti-mouse IgG Fc antibody on the surface and injecting different concentrations of scFv over the surface. For the HIL6 components IL6 (eBioscience, catalog no. 14-8069) and sIL6R, a single 100 nM injection was performed to obtain a qualitative assessment of binding.

Assay [4] deals with B7. The experiment in a line: SPR Biacore T100, binder captured by anti-human Fc. As to the method: as §1, §2
Assay [5] addresses T3, recombinant human IL6 (human, UniProt P05231 30-212).
T3 construct: also called rhIL6; IL6 monomer
The experiment in a line: SPR Biacore T100, binder captured by anti-human Fc. How it is done: as §1, §2

Assay [6] has as its target T2, hu HIL6 Fc dimer (dimeric human …). The experiment in a line: SPR Biacore T100, binder captured by anti-human Fc. How it is done: as §1, §2

A word on the Kd: it is the equilibrium constant for the complex coming apart. On to B1, for which, in assay [1], binding was put at a Kd of 0.68 nM.

B2: SEQ ID NO: 679 (scFv) (scFv)
scFv: EVQLLESGGGLVQPGGSLRLSCAASGFTFSWYLMHWVRQAPGKGLEWVSGIWPSGGHTLYADSVKGRFTISRDNSKNTLYLQMNSLRAEDTAVYYCAREPLLWFGELSYNWFDPWGQGTLVTVSSGGGGSGGGGSGGGGSQDIQMTQSPSSVSASVGDRVTITCRASQGISSWLAWYQQKPGKAPKLLIYAASSLQSGVPSRFSGSGSGTDFTLTISSLQPEDFATYYCQQANSFPLTFGGGTKVEIK
As for B2, in assay [2], binding was characterised by a dissociation constant (Kd) of 1.46 nM.

B3: TRU(S6)-1029 (Fc fusion)
chain: EVQLLESGGGLVQPGGSLRLSCAASGFTFSSYWMHWVRQAPGKGLEWVSSIYPSGGSTEYADSVKGRFTISRDNSKNTLYLQMNSLRAEDTAVYYCAKGIWFDPWGQGTLVTVSSGGGGSGGGGSGGGGSQDIQMTQSPATLSASVGDRVTITCRSSQRISGYLNWYQQQPGKAPKLLIYAASTLQSGVPSRISGSGSGTDFSLIISSLQPEDVATYYCQQSYSPPFTFGGGTKVEIKTGEPKSSDKTHTCPPCPAPEAAGAPSVFLFPPKPKDTLMISRTPEVTCVVVDVSHEDPEVKFNWYVDGVEVHNAKTKPREEQYNSTYRVVSVLTVLHQDWLNGKAYACAVSNKALPAPIEKTISKAKGQPREPQVYTLPPSRDELTKNQVSLTCLVKGFYPSDIAVEWESNGQPENNYKTTPPVLDSDGSFFLYSKLTVDKSRWQQGNVFSCSVMHEALHNHYTQKSLSLSPGK
notes: SMIP (scFv - linker - CH2CH3)
With B3, the Kd in assay [3] was determined as 180 nM. Further, the binding result in assay [4] is “no binding (tested: 100 nM)”.

B4: SEQ ID NO: 671 (scFv) (scFv)
scFv: EVQLLESGGGLVQPGGSLRLSCAASGFTFSFYQMHWVRQAPGKGLEWVSGIYPSGGYTKYADSVKGRFTISRDNSKNTLYLQMNSLRAEDTAVYYCARDLGYGSSWYYFDYWGQGTLVTVSSGGGGSGGGGSGGGGSQSALTQPASVSGSPGQSITISCSGTDSDVGGYNHVSWYQQHPGKAPKLIIYDVDHRPSGISNRFSGSKSGNTASLTISGLQAEDEADYYCSSYRSGSTYVFGTGTKVTVL
With B4, in assay [2], the dissociation constant (Kd) stood at 1.04 nM.

B5: TRU(S6)-1013 (Fc fusion)
chain: EVQLLESGGGLVQPGGSLRLSCAASGFTFSGYVMGWVRQAPGKGLEWVSSISPSGGYTLYADSVKGRFTISRDNSKNTLYLQMNSLRAEDTAVYYCARAFSTRWYWGAFDIWGQGTMVTVSSGGGGSGGGGSGGGGSQDIQMTQSPATLSLSPGERATLSCRASQSVRSYLAWYQQKPGQAPRLLIYDASNRATGIPARFSGSGSGTDFTLTITSLQPEDIATYYCQQYDNLPLTFGGGTKVEIKTGEPKSSDKTHTCPPCPAPEAAGAPSVFLFPPKPKDTLMISRTPEVTCVVVDVSHEDPEVKFNWYVDGVEVHNAKTKPREEQYNSTYRVVSVLTVLHQDWLNGKAYACAVSNKALPAPIEKTISKAKGQPREPQVYTLPPSRDELTKNQVSLTCLVKGFYPSDIAVEWESNGQPENNYKTTPPVLDSDGSFFLYSKLTVDKSRWQQGNVFSCSVMHEALHNHYTQKSLSLSPGK
notes: SMIP (scFv - linker - CH2CH3)
Turning to B5, the Kd in assay [3] turned out to be 31 nM; in assay [6], 200 nM. The binding result in assay [4] and in assay [5] was “no binding (tested: 100 nM)” each time.

B6: TRU(S6)-1025 (Fc fusion)
chain: EVQLLESGGGLVQPGGSLRLSCAASGFTFSHYGMHWVRQAPGKGLEWVSSIYPGMTQYADSVKGRFTISRDNSKNTLYLQMNSLRAEDTAVYYCARDRGSGIDAFDIWGQGTMVTVSSGGGGSGGGGSGGGGSQSELTQPPSVSVSPGQTATVSCSGEKLGDRYAWWYQQKAGQSPVLVIYQDTKRPSGVPDRFSGSNSGTSASLVISGPQSEDEADYYCAAWDDSLKGVVFGGGSKLTVLTGEPKSSDKTHTCPPCPAPEAAGAPSVFLFPPKPKDTLMISRTPEVTCVVVDVSHEDPEVKFNWYVDGVEVHNAKTKPREEQYNSTYRVVSVLTVLHQDWLNGKAYACAVSNKALPAPIEKTISKAKGQPREPQVYTLPPSRDELTKNQVSLTCLVKGFYPSDIAVEWESNGQPENNYKTTPPVLDSDGSFFLYSKLTVDKSRWQQGNVFSCSVMHEALHNHYTQKSLSLSPGK
notes: SMIP (scFv - linker - CH2CH3)
Consider B6, for which the dissociation constant (Kd) in assay [3] turned out to be 2.6 nM; in assay [6] it was 4.4 nM. Besides, in assay [5], the binding result is “no binding (tested: 100 nM)”.
For the molecule B7, the binding result in assay [1] is on record as “no binding (tested: 100 nM)”.

The record behind these values is US20110142851A1 (EMERGENT PRODUCT DEVELOPMENT SEATTLE, published 2011).
